Results from patent US20190202908A1 (Harvard, published 2019).

Target: EGFP (UniProt P42212 1-238 = GFP)
Assay: Biacore (SPR)

B1: GBP6 nanobody alone (VHH)
VHH: QVQLQESGGGSVQTGGSLRLSCAVSPYIGSRISLGWFRQAPGKVREGVALINSRDGSTYYADTVKGRFTISQGDANTVYLQMNSLKPEDTAIYYCAARWGQITDIQALAVASFPDWGQGTQVTVSS
notes: also called GPB6
**Q.** B1 was tested. Which Kd did it give?
**A.** 2.26 nM
